Results from US20110319338A1, “PEPTIDES THAT BIND EUKARYOTIC TRANSLATION INITIATION FACTOR 4E” (The Board of Regents of the University of Texas System, priority 2008, published 2011).
Square brackets hold non-standard residues; d marks the D form. Ends that are not written are not given here.

Experiments:
[1] = test system: GnRH-RI-positive and -negative lines; assay: Cell viability assay across cell lines; type: cell-based; settings: 3 days
Method: FIGS. 3A-3H. Uptake, binding and inhibitory effects of [DLys6]GnRH-4EBP fusion peptides. (FIG. 3A) Sequences of [DLys6]GnRH, and wild-type and mutant 4EBP1 peptides fused to the agonist. (FIG. 3B) Western blot of GnRH-RI levels in OVCAR-3, ES-2, MDA-MB-231, BJ, HUVEC and SKOV3 cells. (FIG. 3C) Detection of biotinylated peptides in OVCAR-3 and SKOV3 by Texas Red-conjugated streptavidin at 16 hours after peptide addition (3 micromoles per liter). In (FIGS. 3D and 3E), biotinylated peptides were incubated with OVCAR-3 cell lysate as described in FIG. 1. In (FIG. 3D), peptide was pulled down using streptavidin-agarose. Precipitates (P) and supernatants (S) were analyzed by Western blot using eIF4E antibody. In (FIG. 3E), immunoprecipitation was performed using eIF4E antibody, and Western blot performed using eIF4G antibody. […]
FIGS. 14A-14B. […] Viability of cells at 3 days after peptide addition was measured by crystal violet staining and is expressed relative to viability of cells incubated with no peptide. […] Staining of cells with FITC-Annexin V and PI was analyzed by flow cytometry.
Cell viability and TUNEL assays. […] Cells were stained with 0.5% crystal violet solution, and absorbance measured at 570 nm. […] Cells were fixed in 70% ethanol and the extent of apoptosis was determined by flow cytometric analysis of TUNEL-staining using the APO-BRDU kit (Phoenix Flow Systems, San Diego Calif.). […]

[2] = target: T1, binding of eIF4E to eIF4G in SKOV3+GnRH-RI cells (Homo sapiens, UniProt P06730); assay: eIF4E immunoprecipitation / eIF4G Western blot of lysates of peptide-treated cells; type: cell-based; settings: 10 micromoles per liter, 24 hours
T1 construct: endogenous in cells; host or cells: SKOV3+GnRH-RI cells
Method: FIGS. 8A-8D. Effect of [DLys6] GnRH-4EBP1 peptide in SKOV3 cells stably expressing GnRH-RI. (FIG. 8A) Western blot analysis of GnRH-RI in parental SKOV3 cells and SKOV3 cells transfected with GnRH-RI. In (FIG. 8B), SKOV3+GnRH-RI cells were treated with biotinylated peptides at a final concentration of 10 micromoles per liter or incubated without peptide. At 24 hours after treatment, lysates were prepared from cells. Peptide was pulled-down using streptavidin-agarose. Precipitates and supernatants were analyzed by Western blot using eIF4E antibody. (FIG. 8C) parental SKOV3, SKOV3+GnRH-RI and ES-2 cells were treated with the indicated peptides (10 micromoles per liter) or incubated without peptide. At 24 hours after treatment, lysates were prepared from cells. Immunoprecipitation was performed using eIF4E antibody, and Western blot of precipitates was performed using eIF4G antibody. Western blot of whole cell lysates of treated cells was performed using antibodies to eIF4G, eIF4E and actin. (FIG. 8D) TUNEL-staining of parental SKOV3 and SKOV3+GnRH-RI cells at 3 days following treatment with peptide at a final concentration of 30 micromoles per liter.
Immunoprecipitation (IP) and Western blotting. Biotinylated peptides were incubated with 250 micrograms of cell lysate at a final concentration of 3 micromoles per liter for 6 hours at 4° C. […]

eIF4E = target: T2, eIF4E (Homo sapiens, UniProt P06730); assay: Streptavidin-agarose pull-down of biotinylated peptide from OVCAR-3 cell lysate, Western blot with eIF4E antibody; type: binding; settings: biotinylated peptide 3 micromoles per liter, 250 micrograms OVCAR-3 cell lysate
T2 construct: endogenous in cells; host or cells: OVCAR-3 cell lysate
Method: FIGS. 1A-1G. 4EBP peptides bind eIF4E and inhibit binding of eIF4E to eIF4G. (FIG. 1A) Sequences of peptides comprising residues 49 to 68 of 4EBP1 and 4EBP2. (FIG. 1B) Biotinylated peptides (3 micromoles per liter) were incubated with 250 micrograms of OVCAR-3 cell lysate. Peptides were pulled-down using streptavidin-agarose. Precipitates (P) and supernatants (S) were analyzed by Western blot using eIF4E antibody. In (FIG. 1C), immunoprecipitation was performed using eIF4E antibody, and Western blot performed using eIF4G antibody. (FIG. 1D) Sequences of wild-type and mutant 4EBP peptides fused to TAT (mutant residues are highlighted). (FIG. 1E) OVCAR-3 cells were treated with biotinylated peptides (3 micromoles per liter, final concentration) for 16 hours. Internalized peptides were detected by staining fixed cells with Texas Red-conjugated streptavidin. Nuclei were visualized by staining with 4′,6-Diamidino-2-Phenylindole (DAPI). (FIGS. 1F and 1G) OVCAR-3 cell lysates were incubated with peptides as described for FIG. 1B. In (FIG. 1F), immunoprecipitation was performed using streptavidin-agarose and Western blot performed using eIF4E antibody. In (FIG. 1G), immunoprecipitation was performed using eIF4E antibody, and Western blot performed using eIF4G antibody.
FIGS. 3A-3H. Uptake, binding and inhibitory effects of [DLys6]GnRH-4EBP fusion peptides. (FIG. 3A) Sequences of [DLys6]GnRH, and wild-type and mutant 4EBP1 peptides fused to the agonist. (FIG. 3B) Western blot of GnRH-RI levels in OVCAR-3, ES-2, MDA-MB-231, BJ, HUVEC and SKOV3 cells. (FIG. 3C) Detection of biotinylated peptides in OVCAR-3 and SKOV3 by Texas Red-conjugated streptavidin at 16 hours after peptide addition (3 micromoles per liter). In (FIGS. 3D and 3E), biotinylated peptides were incubated with OVCAR-3 cell lysate as described in FIG. 1. In (FIG. 3D), peptide was pulled down using streptavidin-agarose. Precipitates (P) and supernatants (S) were analyzed by Western blot using eIF4E antibody. In (FIG. 3E), immunoprecipitation was performed using eIF4E antibody, and Western blot performed using eIF4G antibody. (FIG. 3F) R-Luc and F-Luc activities were assayed in ES-2-DualLuc cells at 6 hours after addition of the indicated concentrations of peptides, and are expressed relative to the respective luciferase activities in cells incubated without peptide. Shown are results of triplicate assays performed independently two times, and the statistical significance of differences in relative R-Luc and F-Luc activities in cells treated with peptide at a concentration of 10 micromoles per liter (FIG. 3G) Cells of GnRH-RI-positive and -negative lines were treated with the indicated concentrations of peptides. […]

T1 sequence (P06730 2-217 limits assumed): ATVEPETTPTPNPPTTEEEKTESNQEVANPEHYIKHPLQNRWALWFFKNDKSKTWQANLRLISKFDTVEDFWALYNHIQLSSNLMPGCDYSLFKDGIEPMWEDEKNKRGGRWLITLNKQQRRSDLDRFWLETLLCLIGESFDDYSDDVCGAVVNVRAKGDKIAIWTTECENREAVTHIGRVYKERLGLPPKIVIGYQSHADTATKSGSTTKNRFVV
T2 sequence (P06730 whole entry): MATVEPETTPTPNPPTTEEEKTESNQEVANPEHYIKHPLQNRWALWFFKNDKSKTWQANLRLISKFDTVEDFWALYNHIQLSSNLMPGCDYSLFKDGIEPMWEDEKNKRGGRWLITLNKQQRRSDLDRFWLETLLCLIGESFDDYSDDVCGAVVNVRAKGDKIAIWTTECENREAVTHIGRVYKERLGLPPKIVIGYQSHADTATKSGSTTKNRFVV

[DLys6]GnRH: GnRH agonist with a D-amino acid substitution at position 6; GnRH-RI-targeting moiety (QHWSY[dK]LRPG; not fully specified (residue 1, C-terminus); ends and bridges not checked)
cell growth across lines [1]: did not significantly inhibit cell growth | binding of eIF4E to eIF4G in treated cells [2]: not inhibited | binding of peptide to eIF4E (eIF4E): did not bind
